Substrate: Nc1ncnc2c1ncn2[C@@H]1O[C@H](COP(=O)(O)OP(=O)(O)OP(=O)(O)O)[C@@H](O)[C@H]1O
Test: purified protein
Details: labelled compound, ΦX174 ssDNA, Mg2+, 65°C

Protein	Km (5.0 μM protein) [µM]	kcat (5.0 μM protein) [s⁻¹]	further results
SsoRadA (Sulfolobus solfataricus RadA) (Saccharolobus solfataricus P2) (protein) MSNEVEQKKNIKTINDLPGISQTVINKLIEAGYSSLETLAVASPQDLSVAAGIPLSTAQKIIKEARDALDIRFKTALEVKKERMNVKKISTGSQALDGLLAGGIETRTMTEFFGEFGSGKTQLCHQLSVNVQLPPEKGGLSGKAVYIDTEGTFRWERIENMAKALGLDIDNVMNNIYYIRAINTDHQIAIVDDLQELVSKDPSIKLIVVDSVTSHFRAEYPGRENLAVRQQKLNKHLHQLTRLAEVYDIAVIITNQVMARPDMFYGDPTVAVGGHTLYHVPGIRIQLKKSRGNRRIARVVDAPHLPEGEVVFALTEEGIRDAEE	–	–	Km (3.0 μM protein): 300 ± 10 µM; kcat (3.0 μM protein): 0.00085 ± 1.7e-05 s⁻¹
SsoRadA (Sulfolobus solfataricus RadA) (Saccharolobus solfataricus P2; R83A) (protein) MSNEVEQKKNIKTINDLPGISQTVINKLIEAGYSSLETLAVASPQDLSVAAGIPLSTAQKIIKEARDALDIRFKTALEVKKEAMNVKKISTGSQALDGLLAGGIETRTMTEFFGEFGSGKTQLCHQLSVNVQLPPEKGGLSGKAVYIDTEGTFRWERIENMAKALGLDIDNVMNNIYYIRAINTDHQIAIVDDLQELVSKDPSIKLIVVDSVTSHFRAEYPGRENLAVRQQKLNKHLHQLTRLAEVYDIAVIITNQVMARPDMFYGDPTVAVGGHTLYHVPGIRIQLKKSRGNRRIARVVDAPHLPEGEVVFALTEEGIRDAEE	–	–	Km (2.5 μM protein): 210 ± 10 µM; kcat (2.5 μM protein): 0.00152 ± 1.7e-05 s⁻¹
SsoRadA (Sulfolobus solfataricus RadA) (Saccharolobus solfataricus P2; R83E) (protein) MSNEVEQKKNIKTINDLPGISQTVINKLIEAGYSSLETLAVASPQDLSVAAGIPLSTAQKIIKEARDALDIRFKTALEVKKEEMNVKKISTGSQALDGLLAGGIETRTMTEFFGEFGSGKTQLCHQLSVNVQLPPEKGGLSGKAVYIDTEGTFRWERIENMAKALGLDIDNVMNNIYYIRAINTDHQIAIVDDLQELVSKDPSIKLIVVDSVTSHFRAEYPGRENLAVRQQKLNKHLHQLTRLAEVYDIAVIITNQVMARPDMFYGDPTVAVGGHTLYHVPGIRIQLKKSRGNRRIARVVDAPHLPEGEVVFALTEEGIRDAEE	460 ± 60	0.000867 ± 6.7e-05	–
SsoRadA (Sulfolobus solfataricus RadA) (Saccharolobus solfataricus P2; F73D) (protein) MSNEVEQKKNIKTINDLPGISQTVINKLIEAGYSSLETLAVASPQDLSVAAGIPLSTAQKIIKEARDALDIRDKTALEVKKERMNVKKISTGSQALDGLLAGGIETRTMTEFFGEFGSGKTQLCHQLSVNVQLPPEKGGLSGKAVYIDTEGTFRWERIENMAKALGLDIDNVMNNIYYIRAINTDHQIAIVDDLQELVSKDPSIKLIVVDSVTSHFRAEYPGRENLAVRQQKLNKHLHQLTRLAEVYDIAVIITNQVMARPDMFYGDPTVAVGGHTLYHVPGIRIQLKKSRGNRRIARVVDAPHLPEGEVVFALTEEGIRDAEE	490 ± 30	0.00085 ± 1.7e-05	–

From paper PMC1874592
